± gives the uncertainty stated by the source.
B1: 1-phosphatidylinositol 4,5-bisphosphate phosphodiesterase gamma-2, residues 772 to 827; numbered along this chain, P16885 (parent)
chain: RTVKALYDYKAKRSDELSFCRGALIHNVSKEPGGWWKGDYGTRIQQYFPSNYVEDI

Variants of: B1
Test: abundance fitness (aPCA) (normalised: wild type 0, dead -1); higher = more abundant; growth selection in yeast, the domain comes from the species named
Details: Homo sapiens

| Variant | abundance fitness |
| --- | --- |
| RTVKALYDYKAKRSDELSFCRGALIHNVSKEPGGWWKGDYGTRIQQYFPLNYVEDI [S50L] | -0.737 ± 0.13 |
| RTVKALYDYKAKRSDELSFCRGALIHNVSKEPGGWWKGDYGTRIQQYFPHNYVEDI [S50H] | -0.163 ± 0.19 |
| RTVKALYDYKAKRSDELSFCRGALIHNVSKEPGGWWKGDYGTRIQQYSPSNYVEDI [F48S] | -0.872 ± 0.11 |
| RTVKALYDYKAKRSDELSFCRGALIHNVSKEPGGWWKGDYGTRIQQYTPSNYVEDI [F48T] | -0.952 ± 0.12 |
| RTVKALYDYKAKRSDELSFCRGALIHNVSKEPGGWWKGDYGTRIQQYLPSNYVEDI [F48L] | -0.541 ± 0.13 |
| RTVKALYDYKAKRSDELSFCRGALIHNVSKEPGGWWKGDYGTRIQQYVPSNYVEDI [F48V] | -0.939 ± 0.19 |
| RTVKALYDYKAKRSDELSFCRGALIHNVSKEPGGWWKGDYGTRIQQYAPSNYVEDI [F48A] | -1.02 ± 0.16 |
| RTVKALYDYKAKRSDELSFCRGALIHNVSKEPGGWWKGDYGTRIQQYRPSNYVEDI [F48R] | -0.982 ± 0.21 |
| RTVKALYDYKAKRSDELSFCRGALIHNVSKEPGGWWKGDYGTRIQQYNPSNYVEDI [F48N] | -0.437 ± 0.4 |
| RTVKALYDYKAKRSDELSFCRGALIHNVSKEPGGWWKGDYGTRIQQYMPSNYVEDI [F48M] | -0.911 ± 0.15 |
| RTVKALYDYKAKRSDELSFCRGALIHNVSKEPGGWWKGDYGTRIQQYWPSNYVEDI [F48W] | -0.848 ± 0.16 |
| RTVKALYDYKAKRSDELSFCRGALIHNVSKEPGGWWKGDYGTRIQQYPPSNYVEDI [F48P] | -0.923 ± 0.093 |
| RTVKALYDYKAKRSDELSFCRGALIHNVSKEPGGWWKGDYGTRIQQYEPSNYVEDI [F48E] | -1.05 ± 0.23 |
| RTVKALYDYKAKRSDELSFCRGALIHNVSKEPGGWWKGDYGTRIQQEFPSNYVEDI [Y47E] | -0.672 ± 0.21 |
| RTVKALYDYKAKRSDELSFCRGALIHNVSKEPGGWWKGDYGTRIQQIFPSNYVEDI [Y47I] | -0.607 ± 0.25 |
| RTVKALYDYKAKRSDELSFCRGALIHNVSKEPGGWWKGDYGTRIQQSFPSNYVEDI [Y47S] | -0.293 ± 0.082 |
| RTVKALYDYKAKRSDELSFCRGALIHNVSKEPGGWWKGDYGTRIQQNFPSNYVEDI [Y47N] | -0.256 ± 0.19 |
| RTVKALYDYKAKRSDELSFCRGALIHNVSKEPGGWWKGDYGTRIQQGFPSNYVEDI [Y47G] | -0.604 ± 0.098 |
| RTVKALYDYKAKRSDELSFCRGALIHNVSKEPGGWWKGDYGTRIQQHFPSNYVEDI [Y47H] | -0.437 ± 0.18 |
| RTVKALYDYKAKRSDELSFCRGALIHNVSKEPGGWWKGDYGTRIQQCFPSNYVEDI [Y47C] | -0.401 ± 0.12 |
| RTVKALYDYKAKRSDELSFCRGALIHNVSKEPGGWWKGDYGTRIQQQFPSNYVEDI [Y47Q] | -0.167 ± 0.15 |
| RTVKALYDYKAKRSDELSFCRGALIHNVSKEPGGWWKGDYGTRIQQFFPSNYVEDI [Y47F] | -0.051 ± 0.085 |
| RTVKALYDYKAKRSDELSFCRGALIHNVSKEPGGWWKGDYGTRIQQDFPSNYVEDI [Y47D] | -0.763 ± 0.17 |
| RTVKALYDYKAKRSDELSFCRGALIHNVSKEPGGWWKGDYGTRIQQRFPSNYVEDI [Y47R] | 0.076 ± 0.063 |

| Variant | abundance fitness |
| --- | --- |
| RTVKALYDYKAKRSDELSFCRGALIHNVSKEPGGWWKGDYGTRIQQMFPSNYVEDI [Y47M] | -0.417 ± 0.19 |
| RTVKALYDYKAKRSDELSFCRGALIHNVSKEPGGWWKGDYGTRIQQLFPSNYVEDI [Y47L] | 0.002 ± 0.056 |
| RTVKALYDYKAKRSDELSFCRGALIHNVSKEPGGWWKGDYGTRIQQVFPSNYVEDI [Y47V] | -0.34 ± 0.076 |
| RTVKALYDYKAKRSDELSFCRGALIHNVSKEPGGWWKGDYGTRAQQYFPSNYVEDI [I44A] | -0.196 ± 0.05 |
| RTVKALYDYKAKRSDELSFCRGALIHNVSKEPGGWWKGDYGTRPQQYFPSNYVEDI [I44P] | -0.845 ± 0.47 |
| RTVKALYDYKAKRSDELSFCRGALIHNVSKEPGGWWKGDYGTRWQQYFPSNYVEDI [I44W] | -0.384 ± 0.081 |
| RTVKALYDYKAKRSDELSFCRGALIHNVSKEPGGWWKGDYGTRHQQYFPSNYVEDI [I44H] | 0.026 ± 0.084 |
| RTVKALYDYKAKRSDELSFCRGALIHNVSKEPGGWWKGDYGTRFQQYFPSNYVEDI [I44F] | -0.237 ± 0.16 |
| RTVKALYDYKAKRSDELSFCRGALIHNVSKEPGGWWKGDYGTRKQQYFPSNYVEDI [I44K] | -0.008 ± 0.14 |
| RTVKALYDYKAKRSDELSFCRGALIHNVSKEPGGWWKGDYGTRVQQYFPSNYVEDI [I44V] | 0.043 ± 0.064 |
| RTVKALYDYKAKRSDELSFCRGALIHNVSKEPGGWWKGDYGTRDQQYFPSNYVEDI [I44D] | -0.64 ± 0.34 |
| RTVKALYDYKAKRSDELSFCRGALIHNVSKEPGGWWKGDYGTRSQQYFPSNYVEDI [I44S] | -0.454 ± 0.12 |
| RTVKALYDYKAKRSDELSFCRGALIHNVSKEPGGWWKGDYGTREQQYFPSNYVEDI [I44E] | -0.133 ± 0.091 |
| RTVKALYDYKAKRSDELSFCRGALIHNVSKEPGGWWKGDYGTRTQQYFPSNYVEDI [I44T] | 0.191 ± 0.08 |
| RTVKALYDYKAKRSDELSFCRGALIHNVSKEPGGWWKGDYGTRMQQYFPSNYVEDI [I44M] | 0.019 ± 0.064 |
| RTVKALYDYKAKRSDELSFCRGALIHNVSKEPGGWWKGDYGTRGQQYFPSNYVEDI [I44G] | -0.811 ± 0.11 |
| RTVKALYDYKAKRSDELSFCRGALIHNVSKEPGGWWKGDYGTRYQQYFPSNYVEDI [I44Y] | -0.116 ± 0.1 |
| RTVKALYDYKAKRSDELSFCRGALIHNVSKEPGGWWKGDYGTRNQQYFPSNYVEDI [I44N] | -0.224 ± 0.15 |
| RTVKALYDYKAKRSDELSFCRGALIHNVSKEPGGWWKGDYGTRCQQYFPSNYVEDI [I44C] | -0.074 ± 0.069 |
| RTVKALYDYKAKRSDELSFCRGALIHNVSKEPGGWWKGDYGTRLQQYFPSNYVEDI [I44L] | -0.111 ± 0.076 |
| RTVKALYDYKAKRSDELSFCRGALIHNVSKEPGGWWKGDYGTRQQQYFPSNYVEDI [I44Q] | -0.246 ± 0.12 |
| RTVKALYDYKAKRSDELSFCRGALIHNVSKEPGGWWKGDYGTWIQQYFPSNYVEDI [R43W] | -0.167 ± 0.08 |
| RTVKALYDYKAKRSDELSFCRGALIHNVSKEPGGWWKGDYGTYIQQYFPSNYVEDI [R43Y] | -0.228 ± 0.25 |

From the Human Domainome abundance scans (Beltran et al. 2025)
